Results reported in US20250333503A1 (COMPUGEN, published 2025).

T1: human PVRIG (Poliovirus Receptor Related Immunoglobulin Domain Containing Protein) (human, UniProt Q6DKI7 41-326)
T1 construct: whole, on cells; on HEK293 over-expressing cells (some pools flag-tagged), Jurkat, CA46 or primary T cells; also called hPVRIG; C7orf15
T1 sequence (looked up): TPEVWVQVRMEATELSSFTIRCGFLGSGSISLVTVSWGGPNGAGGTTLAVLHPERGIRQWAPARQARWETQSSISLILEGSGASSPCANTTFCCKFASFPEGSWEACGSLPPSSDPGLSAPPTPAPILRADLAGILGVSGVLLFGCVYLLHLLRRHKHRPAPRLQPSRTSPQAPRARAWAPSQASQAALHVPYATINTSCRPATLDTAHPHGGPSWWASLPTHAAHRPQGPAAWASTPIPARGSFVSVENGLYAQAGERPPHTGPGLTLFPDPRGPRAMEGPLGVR


Legend:
[1] = molecular target: T1, human PVRIG (Poliovirus Receptor …); assay: FACS on Jurkat cells transfected with scrambled siRNA
[2] = molecular target: T1, human PVRIG (Poliovirus Receptor …); assay: FACS on Jurkat cells after PVRIG siRNA knock down
[3] = molecular target: T1, human PVRIG (Poliovirus Receptor …); assay: flow cytometry equilibrium titration on HEK 293 cells expressing human PVRIG, 1:1 fit
[4] = molecular target: T2, mouse PVRIG on HEK293 over-expressing cells (mouse); assay: FACS, 60 µg/ml on HEK293 OX mouse PVRIG; one of two sources
T2 construct: whole, on cells; also called HEK293 OX mouse PVRIG; mouse PVRIG-FLAG

Binder	fold change (anti PVRIG vs isotype control) [1] [fold]	fold change (anti PVRIG vs isotype control) [2] [fold]	Kd [3] [nM]	fold binding vs empty vector cells [4] [fold]
CPA.7.021 IgG conjugated with Alexa 647 (antibody, V domains shown) VH: EVQLVESGGGVVKPGGSLRLSCAASGFTFGTSSMNWVRQAPGKGLEWVAVISFDGTEIHYADSVKGRFTISRDNSKSTVFLQMNSLRPDDTALYYCAKGSGNIYFYSGMDVWGQGTTVTVSS VL: DIQMTQSPSTLSASVGDRVTITCRAGQSISGWLAWFQQKPGKAPNLLIYETSTLESGVPSRFSGSGSGTEYTLTISSLQPDDFATYYCQQYYSYPLTFGQGTKVEIK	15.3	2.8	2.5	–
mouse PVRL2-his (ligand, UniProt P32507 32-351, looked up, also called His-tagged PVRL2; his-tagged mouse PVLR2) QDVRVRVLPEVRGRLGGTVELPCHLLPPTTERVSQVTWQRLDGTVVAAFHPSFGVDFPNSQFSKDRLSFVRARPETNADLRDATLAFRGLRVEDEGNYTCEFATFPNGTRRGVTWLRVIAQPENHAEAQEVTIGPQSVAVARCVSTGGRPPARITWISSLGGEAKDTQEPGIQAGTVTIISRYSLVPVGRADGVKVTCRVEHESFEEPILLPVTLSVRYPPEVSISGYDDNWYLGRSEAILTCDVRSNPEPTDYDWSTTSGVFPASAVAQGSQLLVHSVDRMVNTTFICTATNAVGTGRAEQVILVRESPSTAGAGATGG	–	–	–	2
